{
  "source": "paper PMC9733933",
  "molecular_target": "SARS-CoV-2 nsp7-11 polyprotein (SARS-CoV-2)",
  "assay": "SEC-MALS",
  "data": [
    {"substance": "SARS-CoV-2 nsp7-11 polyprotein (domain or fragment)", "values": [
      {"measurement": "stoichiometry N", "result": 2}
    ]}
  ]
}
